Measurements as given in the nanobody polyreactivity screen of Harvey et al. (2022).

Test: yeast display, Sf9 membrane polyspecificity reagent, FACS + sequencing; frameworks hold sequencing errors
Outline: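 A synthetic nanobody library was expressed on Saccharomyces cerevisiae BJ5465 by galactose induction for 36–48 hours. The library was stained for 1 hour at 4 °C with 10% biotinylated, detergent-solubilized Sf9 membrane reagent and enriched with streptavidin microbeads before FACS. Low and high (top ~1%) gates were set on anti-HA fluorescence for expression and streptavidin fluorescence for reagent binding, and each polyreactivity label reflects the gate of origin.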

Sequence | polyreactivity (PSR sort gate)
QVQLVESGGGLVQAGGSLRLSCAASGSIFTYAMGWYRQAPGKERELVAAITYSGGRTDYADSVKGRFTISRDNAKNTVYLQMNSLKPEDTAVYYCAVRARPYPYYGALMYYWGQGTQVTVSS | low polyreactivity
QVQLVESGGGLVQAGGSLRLSCAASGSIFTYNAMGWYRQAPGKERELVATISYSGGSTDYADSVKGRFTISRDNAKNTVYLQMNSLKPEDTAVYYCNKEYGYPPIWQDYGYDSWGQGTQVTVSS | high polyreactivity
QVQLVESGGGLVQAGGSLRLSCAASGSIFTYNVMGWYRQAPGKERELVASISWSGGRTYYADSVKGRFTISRDYAKNTVYLQMNSLKPEDTAVYYCNNVRPPVYFPNRDYWGQGTQVNVSS | low polyreactivity
QVQLVESGGGLVQAGGSLRLSCAASGSIFTYYAMGWYRQAPGKERELVAAISGSGGRTYYADSVKGRFTISRDNAKNPVYLQMNSLKPEDTAVYYCAVRSYRRFTHLYYRYDYWGQGTQVTVSS | high polyreactivity
QVQLVESGGGLVQAGGSLRLSCAASGSIFTYYAMGWYRQAPGKERELVAAISSDGSTTYADSVKGRFTISRDNAKNTVYLQMNSLKPEDTAVLLLQRSGLRRSGVWFDYWGQGTQVTVSS | low polyreactivity
QVQLVESGGGLVQAGGSLRLSCAASGSIFTYYVRGWYRQAPVKERELVAGISRRGSTYYADSVKGRFTISRDNAKNTVYLQMNSLKQEDTAVYYCAAEPWVGTLYPRVGYWGQGTQVTVSS | low polyreactivity
QVQLVESGGGLVQAGGSLRLSCAASGSIFVANAMGWYRPAPGKERELVAAISSGGSTYYADSVKGRFTISRDNAKNTVYLQMNSLKPEDTAVYDCAAGQPNLVVGHYYWGQGTQVTVSS | low polyreactivity
QVQLVESGGGLVQAGGSLRLSCAASGSIFVDNAMGWYRQATGKERELVAAISASGVTTYYADSVKGRFTISRDNAKNTVYLQMNSLKPEDTAVYYCNADYGSDDDVVRYDYWGQGTQVTVSS | low polyreactivity
QVQLVESGGGLVQAGGSLRLSCAASGSIFVEYAMGWYRQAPGKERELVAGISSGGITSYADSVKGRFTISRDNAKNTVYLQMNSLKPEDTAGYYCATDPYKWFYSSYYLLQEVEYWGQGTQVTVSS | low polyreactivity
QVQLVESGGGLVQAGGSLRLSCAASGSIFVFNTMGWYRQAPGKERELVAAISDRGTRTYYADSVKGRFTISRDNAKNTVYLQMNSLKPEDTAVYYCATRVYFSPYRYDYWGQGTQVTVSS | high polyreactivity
QVQLVESGGGLVQAGGSLRLSCAASGSIFVFYAMGWYRQAPGKERELVAAINDGGSTHYADSVKGRFTISRDNAKNTVYLQMNSLKPEDTAVYYCAAEYVWYRYPDYWGAYDYWGQGTQVTVSS | low polyreactivity
QVQLVESGGGLVQAGGSLRLSCAASGSIFVGNAMGGYRQAPGKERELVAAITSSGGRTYYADSVKGRFTISRDNAKNTVYLQMNSLKPEDTAVYYCNTSRTRRFSLWAYDYWGQGTQVTVSS | high polyreactivity
QVQLVESGGGLVQAGGSLRLSCAASGSIFVGNAMGWYRPAPGKERELVAAITGRGSRTYYADSVKGRFTLSRDNAKNTVYLQMNSLKPEDTAVYYCAARYTNYGGFYWGQGTQVTVSS | high polyreactivity
QVQLVESGGGLVQAGGSLRLSCAASGSIFVGNAMGWYRQAPGKERELVAAISRSGGRTYYADSVKRRFTISRDNAKITVYLQMNSLKPEHTAVYYCNAYGWEQLQMDSWGQGTQVTVSS | high polyreactivity
QVQLVESGGGLVQAGGSLRLSCAASGSIFVGNAMGWYRQAPGKERELVAAISSSGGRTFYADSVKGRFTISRDNAKNTVYLQMNSLKPEDTAVYYCAAVYTHWQQRMDYWGQGTQVTVSS | high polyreactivity
QVQLVESGGGLVQAGGSLRLSCAASGSIFVGNAMGWYRQAPGKQRELVATISWSGGSTYYADSVKGRFTISRDNAKNTVYLQMNSVKPEDTAVYYCNAVYVSSFTGHDYWGQGTQVTVSS | low polyreactivity
QVQLVESGGGLVQAGGSLRLSCAASGSIFVGYAMGWYRQAPGKERELVAAISSNGGSTYYADSVKGRFTISRDNAKNTVYLQMNSLKPEDTAVYYCAKDYTYSFGRSLDYWGQGTQVTVSS | low polyreactivity
QVQLVESGGGLVQAGGSLRLSCAASGSIFVGYAMGWYRQAPGKERELVAAITGSGTRTYYADSVKGRFTISRDNAKNTVFLQMNSLKPEDTAVYYCAAPLSYKNVKYDYWGQGTQVTVSS | low polyreactivity
QVQLVESGGGLVQAGGSLRLSCAASGSIFVGYAMGWYRQAPGKERELVAAITKRGGSTSYADSVKGRFTISRDNAKNTVYLQMNSLKPEDTAVYYCAKLYYRHLYEYDYWGQGTQVTVSS | high polyreactivity
QVQLVESGGGLVQAGGSLRLSCAASGSIFVGYAMGWYRQAPGKERELVASITTPGGSTHYADSVKGRFTISRDNAKNTVYLQMNSLKPEDTAVYYCAADSLSNGVLQYLPGYDYWGQGTQVTVSS | low polyreactivity

Sequence | polyreactivity (PSR sort gate)
QVQLVESGGGLVQAGGSLRLSCAASGSIFVGYDMGWYRQAPGKERDLVASINGGDSTNYADSVKGRFTISRDNAKYTVYLQMNSLKPEDTAVYYCAKDVTYTDEYDYWGQGTQVTVSS | low polyreactivity
QVQLVESGGGLVQAGGSLRLSCAASGSIFVGYGALGWYRQAHGKERELVAAITSGTSTYYADSVKGRFTISRDNAKNTVYLQINSLKPEDTAVYYCAARGFLKYVTEFDYWGQGTQVTVSS | low polyreactivity
QVQLVESGGGLVQAGGSLRLSCAASGSIFVGYVMGWYRQAPGKERELVAAISRSGGRTYYADSVKGRFTISRDNAKNTVYLQMNSLKPEDTAVYYCAADSYTQPYGSLPHKQRYEYWGQGTQVTVSS | low polyreactivity
QVQLVESGGGLVQAGGSLRLSCAASGSIFVHNAMGWSRQAPGKERELVAAITRGGSTYYADSVKGRFTISRDNAKNTVYLQMNSLKPEDTAVYYCAALAAWRWDLYDYWGQGTQVTVSS | low polyreactivity
QVQLVESGGGLVQAGGSLRLSCAASGSIFVLYAMGWYRQAPGKERELVAAISWRGGGTYYADSVKGRFTISRDNAKNTVYLLMNSLKPEDTAVYYCAAEYRLDAILYTYEFDYWGQGTQVTVSS | high polyreactivity
QVQLVESGGGLVQAGGSLRLSCAASGSIFVNKGMGWYRQAPGKERELVAAIRLSTGSTYYADSVKGRFTISRDNAKNTVYLKINSLKREDTAVDDCATRYYIWGNWGQGTQVTGSS | high polyreactivity
QVQLVESGGGLVQAGGSLRLSCAASGSIFVNNAMGWYRQAPGKERELVAAISSRGGSTYYADSVKGRFTISRDNAKNTVYLQMNSLKPEDTAVYYCAAEYDGPYYSFYPEQRYYWGQGTLVTVSS | low polyreactivity
QVQLVESGGGLVQAGGSLRLSCAASGSIFVNNAMGWYRQAPGKERELVAAISSRGGSTYYADSVKGRFTISRDNAKNTVYLQMYSLKPEDTAVYYCAAEYDGPYYSFYPEQRYYWGQGTQVTVSS | low polyreactivity
QVQLVESGGGLVQAGGSLRLSCAASGSIFVNNAMGWYRQAPGKERELVAAISSRSSRTFYADSVKGRFTISRDNAKNTVYLQMNSLKPEDTAVYYCAVKKRAPDGDYWGQGTQVTVSS | high polyreactivity
QVQLVESGGGLVQAGGSLRLSCAASGSIFVPNAMGWYSQAPGKERELVASISYSGTSTYYADSVKGRFTISRDNAKNTVYLQMNSLKPEDTAVYYCAVTWYPWYYGYWGQGTQVTVSS | high polyreactivity
QVQLVESGGGLVQAGGSLRLSCAASGSIFVQYALGWYRQAPGKERELVAAISQRGGSTYYADSVKGRFTISRDNAKNTVYVQMNSLKPADTAVYYCRPYPPSYYVTFGYGYWGQGTQVTVSS | high polyreactivity
QVQLVESGGGLVQAGGSLRLSCAASGSIFVQYAMGWYRQAPGKERELVAAITRRAGSTYYADSVKGRFTISRDNAKNTVYLQMNSLKPEDTAVYYCAAGYRYRYTRDIWYEYWGQGTQVTVSS | high polyreactivity
QVQLVESGGGLVQAGGSLRLSCAASGSIFVRNAMGWYRQAPGKERELVAAISGSGGRTYYADSEKGRFTISRDNAKNTVYLQMNSLKPEDTAVYYCAKEVTYWYGGNYDYWGQGTQVTVSS | high polyreactivity
QVQLVESGGGLVQAGGSLRLSCAASGSIFVRNAMGWYRQAPGKERELVAAITYRGGSTYYADSVKGRFTISRDNAKNTVYLQMNSLKPEDTAVYYCAARYWQSYRSQVTHSSTLDYWGQGTQVTVSS | low polyreactivity
QVQLVESGGGLVQAGGSLRLSCAASGSIFVRNAMGWYRQAPGKERELVASISYSGGTTYADSVKGRFTISRDNAKNTVYLQMNSLKPEDTAVYYCNAGGVYPRFTFLEQGYEMDYWGQGTQVTVSS | low polyreactivity
QVQLVESGGGLVQAGGSLRLSCAASGSIFVRYAMGWYRQAPGKERELVAAISSGGRTYYADSVKGRFTISRDNAKNPVYLQMNSLKPEDTAVYYCNAVKRVPSLGPYDYWGQGTQVTVSS | high polyreactivity
QVQLVESGGGLVQAGGSLRLSCAASGSIFVRYAMGWYRQAPGKERELVAGITNSGGSTYYADSVKGRFTISRDNEKNTVYLQMNSLKPEDTAVYYCAADAGGWWYKYYYWGQGTQVTVSS | high polyreactivity
QVQLVESGGGLVQAGGSLRLSCAASGSIFVRYAMGWYRQAPGKERELVASIRSRGDSTYYADSVKGRFTISRDNAKNTVYLQMNSLKPEDTAVYYCAGRRYPPRMDYWGQGTQVTVSS | high polyreactivity
QVQLVESGGGLVQAGGSLRLSCAASGSIFVRYTMGWYRQAPGKEREMVAAISWGGGSTYYADSVKGRFTISRDNAKNTVYLQMNSLKPEDTAVYYCNADWSWYNYYDFDYWGQGTQVTVSS | low polyreactivity
QVQLVESGGGLVQAGGSLRLSCAASGSIFVSNAMGWYRQAPGKERELVAAISQSGGSTYYADSVKGRFTISRDNAKNTVYLQMNSLKPEDTAVYYCATPIRSGFRIYDYWGQGTQVTVSS | low polyreactivity
